Reference: patent US11673916B2, “Neuroprotective peptides and methods of their use” (University of Pittsburgh—Of the Commonwealth System of …, priority 2020, dated 2023)

Assays:
[1] = target: T1, endogenous Kv2.1 channels (Rattus norvegicus, UniProt P15387); assay: Immunocytochemistry of endogenous Kv2.1 channel clusters in fixed cortical neurons; format: cell-based; details: 10 μM, three-hour treatment, mean±SEM (FIG. 10B)
T1 construct: in order to visualize the distribution of endogenous Kv2.1 channels; endogenous in cells; host or cells: primary rat cortical neurons
T1 sequence (P15387 1-857): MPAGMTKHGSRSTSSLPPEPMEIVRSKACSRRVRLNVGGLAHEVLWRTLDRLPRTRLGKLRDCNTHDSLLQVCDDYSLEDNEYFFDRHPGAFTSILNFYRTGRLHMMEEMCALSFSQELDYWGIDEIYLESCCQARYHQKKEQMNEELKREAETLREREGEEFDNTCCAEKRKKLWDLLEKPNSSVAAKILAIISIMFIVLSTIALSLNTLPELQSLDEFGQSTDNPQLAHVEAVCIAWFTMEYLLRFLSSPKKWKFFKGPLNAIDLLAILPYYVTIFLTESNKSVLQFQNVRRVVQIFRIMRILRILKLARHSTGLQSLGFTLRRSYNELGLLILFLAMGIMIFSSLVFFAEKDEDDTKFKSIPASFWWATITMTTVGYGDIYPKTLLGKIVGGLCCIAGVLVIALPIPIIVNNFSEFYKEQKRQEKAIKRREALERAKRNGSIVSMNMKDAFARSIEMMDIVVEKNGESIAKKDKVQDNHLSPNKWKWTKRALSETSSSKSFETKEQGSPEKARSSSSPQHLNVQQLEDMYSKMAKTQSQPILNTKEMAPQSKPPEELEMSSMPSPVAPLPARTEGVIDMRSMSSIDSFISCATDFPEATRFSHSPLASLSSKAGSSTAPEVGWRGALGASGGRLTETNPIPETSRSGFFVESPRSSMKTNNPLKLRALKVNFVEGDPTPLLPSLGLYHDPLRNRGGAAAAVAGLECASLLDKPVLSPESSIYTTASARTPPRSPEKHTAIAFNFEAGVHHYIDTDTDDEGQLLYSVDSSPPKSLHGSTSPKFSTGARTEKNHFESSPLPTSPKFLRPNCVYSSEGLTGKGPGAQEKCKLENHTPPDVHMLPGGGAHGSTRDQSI
Protocol: The in vitro Kv2.1 immunofluorescence experiment (FIG. 10) was carried out in DIV 21-26 primary rat neuronal cultures, as described above. Each coverslip was treated with either TAT-DP-2 or TAT-Sc-2 in its individual well to reach a final concentration of […] 3 hours, coverslips were transferred to PBS and immediately fixed with 4% paraformaldehyde/4% sucrose for 15 minutes. Coverslips were rinsed with PBS 3 times and then permeabilized with 0.25% triton-X-100 for 15 minutes. Cells were rinsed with PBS 3 times and then blocked with 2% BSA/10% normal goat serum for 1 hour at room temperature. […]
To analyze Kv2.1 distribution in live primary cortical neurons, cells were transfected with both a tdTomato construct and a GFP-tagged Kv2.1 construct (O'Connell, et al., J Neurosci. 26: 9609-9618, 2006) and imaged on a Nikon A1+ confocal microscope (Nikon, Tokyo, Japan). […] For live images of transfected neurons, object count parameters were customized to define a Kv2.1 cluster as an area of high intensity GFP fluorescence (compared to background), measuring 0.05 μm^2 or larger (Schulien et al., J Physiol (Lond). 594: 2647-2659, 2016). Kv2.1 cluster density was calculated by normalizing the number of Kv2.1 clusters counted to the somatic area of each neuron (#Kv2.1 clusters/μm^2). […]

[2] = test system: MCAo mouse model of ischemic stroke; assay: Murine neurological score (MNS) after MCAo; format: in vivo; details: 50 minutes left MCAo, IP injection at one and six hours post-reperfusion, versus scrambled control (FIG. 6E)
Protocol: To analyze neurological deficits following MCA stroke, testing was performed by a blinded experimenter on additional cohorts, both at baseline (all initial scores were 0) and on post-stroke days 1, 2, 3, 5, 7, 10, 14, 21, 28, 35, and 42. An objective murine neurological score (Table 3) was assigned on each date, ranging from 0 (no neurological deficit) to 8 (stroke-related death) (Yeh et al., J Neurosci. 37: 5648-5658, 2017).
Twenty-four hours following cerebral reperfusion after MCAo, total infarct ratios were analyzed (FIG. 6B) in tetrazolium chloride-stained brain sections (FIGS. 6B and 6C). […] Preparation of peptides, MCAo surgery and injection, as well as infarct analysis were all randomized and performed blindly. A second cohort of mice was subjected to 50-minute MCAo, followed by TAT-DP-2 or TAT-Sc-2 injection at one and six-hours post-reperfusion (FIG. 6A). A different, blinded observer then analyzed each animal and assigned an objective murine neurological score (MNS; Table 3) to each mouse over a 42-day period. As the MNS is based solely on characteristic motor deficits developed following left MCAo, all animals initially scored zero on the scale.

Sequence | mean Kv2.1 surface cluster density (endogenous channels) [1] | murine neurological score (MNS) over 42 days post-MCAo [2]
YGRKKRRQRRRDFSSIST [TAT-Sc-2, TAT-linked scramble control peptide] | 0.056±0.005 #Kv2.1 clusters/μm^2 of neuronal soma | 
YGRKKRRQRRRSIDSFTS [TAT-DP-2, TAT-linked declustering peptide 2] | 0.030±0.003 #Kv2.1 clusters/μm^2 of neuronal soma | significant preservation of favorable neurological score
